Measured values: publication PMC6454087
pKd: −log10 of the molar value.

Molecular target: mouse rec1c sNASP variant protein (V281I, L282F) (mouse)
Assay: BLI; Octet K2, 30 C; sNASP WT or variant immobilised on aminopropylsilane (APS) biosensors, histones in assay buffer at various concentrations (62.5 to 1,000 nM shown for H4), association 240 s; n = 4

Row | pKd | kon [M⁻¹ s⁻¹] | Substance
1 | 7.84 | 37200 | mouse H3.1/H4 tetramer complex (from UniProt P68433 1-136; P62806 1-103)
2 | 7.63 | 15900 | mouse histone H4 (from UniProt P62806 1-103) (natural protein)
